We go through two molecules from patent publication US20220354880A1, “COMBINATION TREATMENT FOR CANCER” (AstraZeneca AB, priority 2019, published 2022).

The test system of one test is MC-38 OVA. The test can be described thus: Low dose cisplatin anti-tumor activity in MC-38 OVA mice. The note with it: cisplatin 5 mg/kg (approximately 60 mg/m^2 human dose). It counts as in vivo. The method, then:
FIGS. 1A-1C relate to Example 1.
A low dose treatment of cisplatin, 5 mg/kg (equivalent to approximately 60 mg/m^2 human dose) was tested for anti-tumor activity in MC-38 OVA mice.

The test system of the next test is human T-cell. The note with it: in vitro; cited from earlier work.
The test system of a further test is xenograft model. The settings on record: via a T-cell dependent mechanism; cited from earlier work.

Turning to `N.N.[Cl][Pt][Cl]` [cisplatin], the “anti-tumor activity (tumor growth inhibition)” value in the test with MC-38 OVA is given as “produces most tumor growth inhibition”.

B1: MEDI4736: anti-PD-L1 antibody selective for a PD-L1 polypeptide; SEQ ID NOs: 3-10 (antibody, V domains shown)
VH: EVQLVESGGGLVQPGGSLRLSCAASGFTFSRYWMSWVRQAPGKGLEWVANIKQDGSEKYYVDSVKGRFTISRDNAKNSLYLQMNSLRAEDTAVYYCAREGGWFGELAFDYWGQGTLVTVSS
VL: EIVLTQSPGTLSLSPGERATLSCRASQRVSSSYLAWYQQKPGQAPRLLIYDASSRATGIPDRFSGSGSGTDFTLTISRLEPEDFAVYYCQQYGSLPWTFGQGTKVEIK
modifications: MEDI4736 VH; Sequence 72 from PCT/US2010/058007; MEDI4736 VL; Sequence 77 from PCT/US2010/058007
As to B1, the “PD-L1-mediated suppression of human T-cell activation” value with human T-cell is on record as “can relieve PD-L1-mediated suppression of human T-cell activation in vitro”. Besides, in the test with xenograft model, the “tumor growth in a xenograft model” value is “inhibit tumor growth in a xenograft model”.
